Numbered stars: 1 amine (or outer) side, 2 acyl side, 3 side chain; on linkers, the order of the positions; unused ones are H or OH. Bridge positions count the residues as written; N and C are the ends. Side chains are listed from the residue outwards. Ends that are not written are not given here. * marks the point of attachment. C20 diacid = O=C(O)CCCCCCCCCCCCCCCCCCC(=O)*; γGlu = O=C(O)[C@H](CCC(=O)[*:2])N[*:1]; AEEA = NCCOCCOCC(=O)O
B1: N^ε1-[2-[2-[2-[[(4S)-4-carboxy-4-(19-carboxynonadecanoylamino)butanoyl]amino]ethoxy]ethoxy]acetyl]-[Arg17,Pro21,Pro27,Pro31,His35]-h-amylin (peptide)
peptide: K([AEEA-γGlu-C20 diacid])CNTATCATQRLANFLRHSSPNFGAIPSSTPVGSHTY-NH2
modifications: disulfide 2-7; N-terminus assumed
SMILES: CC[C@H](C)[C@H](NC(=O)[C@H](C)NC(=O)CNC(=O)[C@H](Cc1ccccc1)NC(=O)[C@H](CC(N)=O)NC(=O)[C@@H]1CCCN1C(=O)[C@H](CO)NC(=O)[C@H](CO)NC(=O)[C@H](Cc1c[nH]cn1)NC(=O)[C@H](CCCNC(=N)N)NC(=O)[C@H](CC(C)C)NC(=O)[C@H](Cc1ccccc1)NC(=O)[C@H](CC(N)=O)NC(=O)[C@H](C)NC(=O)[C@H](CC(C)C)NC(=O)[C@H](CCCNC(=N)N)NC(=O)[C@H](CCC(N)=O)NC(=O)[C@@H](NC(=O)[C@H](C)NC(=O)[C@@H]1CSSC[C@H](NC(=O)[C@@H](N)CCCCNC(=O)COCCOCCNC(=O)CC[C@H](NC(=O)CCCCCCCCCCCCCCCCCCC(=O)O)C(=O)O)C(=O)N[C@@H](CC(N)=O)C(=O)N[C@@H]([C@@H](C)O)C(=O)N[C@@H](C)C(=O)N[C@@H]([C@@H](C)O)C(=O)N1)[C@@H](C)O)C(=O)N1CCC[C@H]1C(=O)N[C@@H](CO)C(=O)N[C@@H](CO)C(=O)N[C@H](C(=O)N1CCC[C@H]1C(=O)N[C@H](C(=O)NCC(=O)N[C@@H](CO)C(=O)N[C@@H](Cc1c[nH]cn1)C(=O)N[C@H](C(=O)N[C@@H](Cc1ccc(O)cc1)C(N)=O)[C@@H](C)O)C(C)C)[C@@H](C)O
notes: Analogue of human amylin; also called compound 57
B2: N^ε1-[2-[2-[2-[[(4S)-4-carboxy-4-(19-carboxynonadecanoylamino)butanoyl]amino]ethoxy]ethoxy]acetyl]-[Arg17,Pro21,Pro27,Pro34]-h-amylin (peptide)
peptide: K([AEEA-γGlu-C20 diacid])CNTATCATQRLANFLRHSSPNFGAIPSSTNVGPNTY-NH2
modifications: disulfide 2-7; N-terminus assumed
SMILES: CC[C@H](C)[C@H](NC(=O)[C@H](C)NC(=O)CNC(=O)[C@H](Cc1ccccc1)NC(=O)[C@H](CC(N)=O)NC(=O)[C@@H]1CCCN1C(=O)[C@H](CO)NC(=O)[C@H](CO)NC(=O)[C@H](Cc1c[nH]cn1)NC(=O)[C@H](CCCNC(=N)N)NC(=O)[C@H](CC(C)C)NC(=O)[C@H](Cc1ccccc1)NC(=O)[C@H](CC(N)=O)NC(=O)[C@H](C)NC(=O)[C@H](CC(C)C)NC(=O)[C@H](CCCNC(=N)N)NC(=O)[C@H](CCC(N)=O)NC(=O)[C@@H](NC(=O)[C@H](C)NC(=O)[C@@H]1CSSC[C@H](NC(=O)[C@@H](N)CCCCNC(=O)COCCOCCNC(=O)CC[C@H](NC(=O)CCCCCCCCCCCCCCCCCCC(=O)O)C(=O)O)C(=O)N[C@@H](CC(N)=O)C(=O)N[C@@H]([C@@H](C)O)C(=O)N[C@@H](C)C(=O)N[C@@H]([C@@H](C)O)C(=O)N1)[C@@H](C)O)C(=O)N1CCC[C@H]1C(=O)N[C@@H](CO)C(=O)N[C@@H](CO)C(=O)N[C@H](C(=O)N[C@@H](CC(N)=O)C(=O)N[C@H](C(=O)NCC(=O)N1CCC[C@H]1C(=O)N[C@@H](CC(N)=O)C(=O)N[C@H](C(=O)N[C@@H](Cc1ccc(O)cc1)C(N)=O)[C@@H](C)O)C(C)C)[C@@H](C)O
notes: Analogue of human amylin; also called compound 50
B3: N^ε1-[2-[2-[2-[[(4S)-4-carboxy-4-(19-carboxynonadecanoylamino)butanoyl]amino]ethoxy]ethoxy]acetyl]-[Arg17,Pro21,Pro27,Pro34,His35]-h-amylin (peptide)
peptide: K([AEEA-γGlu-C20 diacid])CNTATCATQRLANFLRHSSPNFGAIPSSTNVGPHTY-NH2
modifications: disulfide 2-7; N-terminus assumed
SMILES: CC[C@H](C)[C@H](NC(=O)[C@H](C)NC(=O)CNC(=O)[C@H](Cc1ccccc1)NC(=O)[C@H](CC(N)=O)NC(=O)[C@@H]1CCCN1C(=O)[C@H](CO)NC(=O)[C@H](CO)NC(=O)[C@H](Cc1c[nH]cn1)NC(=O)[C@H](CCCNC(=N)N)NC(=O)[C@H](CC(C)C)NC(=O)[C@H](Cc1ccccc1)NC(=O)[C@H](CC(N)=O)NC(=O)[C@H](C)NC(=O)[C@H](CC(C)C)NC(=O)[C@H](CCCNC(=N)N)NC(=O)[C@H](CCC(N)=O)NC(=O)[C@@H](NC(=O)[C@H](C)NC(=O)[C@@H]1CSSC[C@H](NC(=O)[C@@H](N)CCCCNC(=O)COCCOCCNC(=O)CC[C@H](NC(=O)CCCCCCCCCCCCCCCCCCC(=O)O)C(=O)O)C(=O)N[C@@H](CC(N)=O)C(=O)N[C@@H]([C@@H](C)O)C(=O)N[C@@H](C)C(=O)N[C@@H]([C@@H](C)O)C(=O)N1)[C@@H](C)O)C(=O)N1CCC[C@H]1C(=O)N[C@@H](CO)C(=O)N[C@@H](CO)C(=O)N[C@H](C(=O)N[C@@H](CC(N)=O)C(=O)N[C@H](C(=O)NCC(=O)N1CCC[C@H]1C(=O)N[C@@H](Cc1c[nH]cn1)C(=O)N[C@H](C(=O)N[C@@H](Cc1ccc(O)cc1)C(N)=O)[C@@H](C)O)C(C)C)[C@@H](C)O
notes: Analogue of human amylin; also called compound 58
B4: N^ε1-[2-[2-[2-[[(4S)-4-carboxy-4-(19-carboxynonadecanoylamino)butanoyl]amino]ethoxy]ethoxy]acetyl]-[Gly14,Arg17,Pro21,Pro27,Pro31]-h-amylin (peptide)
peptide: K([AEEA-γGlu-C20 diacid])CNTATCATQRLAGFLRHSSPNFGAIPSSTPVGSNTY-NH2
modifications: disulfide 2-7; N-terminus assumed
SMILES: CC[C@H](C)[C@H](NC(=O)[C@H](C)NC(=O)CNC(=O)[C@H](Cc1ccccc1)NC(=O)[C@H](CC(N)=O)NC(=O)[C@@H]1CCCN1C(=O)[C@H](CO)NC(=O)[C@H](CO)NC(=O)[C@H](Cc1c[nH]cn1)NC(=O)[C@H](CCCNC(=N)N)NC(=O)[C@H](CC(C)C)NC(=O)[C@H](Cc1ccccc1)NC(=O)CNC(=O)[C@H](C)NC(=O)[C@H](CC(C)C)NC(=O)[C@H](CCCNC(=N)N)NC(=O)[C@H](CCC(N)=O)NC(=O)[C@@H](NC(=O)[C@H](C)NC(=O)[C@@H]1CSSC[C@H](NC(=O)[C@@H](N)CCCCNC(=O)COCCOCCNC(=O)CC[C@H](NC(=O)CCCCCCCCCCCCCCCCCCC(=O)O)C(=O)O)C(=O)N[C@@H](CC(N)=O)C(=O)N[C@@H]([C@@H](C)O)C(=O)N[C@@H](C)C(=O)N[C@@H]([C@@H](C)O)C(=O)N1)[C@@H](C)O)C(=O)N1CCC[C@H]1C(=O)N[C@@H](CO)C(=O)N[C@@H](CO)C(=O)N[C@H](C(=O)N1CCC[C@H]1C(=O)N[C@H](C(=O)NCC(=O)N[C@@H](CO)C(=O)N[C@@H](CC(N)=O)C(=O)N[C@H](C(=O)N[C@@H](Cc1ccc(O)cc1)C(N)=O)[C@@H](C)O)C(C)C)[C@@H](C)O
notes: Analogue of human amylin; also called compound 71
B5: N^ε1-[2-[2-[2-[[(4S)-4-carboxy-4-(19-carboxynonadecanoylamino)butanoyl]amino]ethoxy]ethoxy]acetyl]-[Arg17,Pro21,Pro27,Pro31]-h-amylin (peptide)
peptide: K([AEEA-γGlu-C20 diacid])CNTATCATQRLANFLRHSSPNFGAIPSSTPVGSNTY-NH2
modifications: disulfide 2-7; N-terminus assumed
SMILES: CC[C@H](C)[C@H](NC(=O)[C@H](C)NC(=O)CNC(=O)[C@H](Cc1ccccc1)NC(=O)[C@H](CC(N)=O)NC(=O)[C@@H]1CCCN1C(=O)[C@H](CO)NC(=O)[C@H](CO)NC(=O)[C@H](Cc1c[nH]cn1)NC(=O)[C@H](CCCNC(=N)N)NC(=O)[C@H](CC(C)C)NC(=O)[C@H](Cc1ccccc1)NC(=O)[C@H](CC(N)=O)NC(=O)[C@H](C)NC(=O)[C@H](CC(C)C)NC(=O)[C@H](CCCNC(=N)N)NC(=O)[C@H](CCC(N)=O)NC(=O)[C@@H](NC(=O)[C@H](C)NC(=O)[C@@H]1CSSC[C@H](NC(=O)[C@@H](N)CCCCNC(=O)COCCOCCNC(=O)CC[C@H](NC(=O)CCCCCCCCCCCCCCCCCCC(=O)O)C(=O)O)C(=O)N[C@@H](CC(N)=O)C(=O)N[C@@H]([C@@H](C)O)C(=O)N[C@@H](C)C(=O)N[C@@H]([C@@H](C)O)C(=O)N1)[C@@H](C)O)C(=O)N1CCC[C@H]1C(=O)N[C@@H](CO)C(=O)N[C@@H](CO)C(=O)N[C@H](C(=O)N1CCC[C@H]1C(=O)N[C@H](C(=O)NCC(=O)N[C@@H](CO)C(=O)N[C@@H](CC(N)=O)C(=O)N[C@H](C(=O)N[C@@H](Cc1ccc(O)cc1)C(N)=O)[C@@H](C)O)C(C)C)[C@@H](C)O
notes: Analogue of human amylin; also called compound 49

Molecular target: T1, rat calcitonin receptor (rat, UniProt P32214 25-516)
T1 construct: whole, on cells; Used as membranes prepared from BHK tk'ts 13 cells transiently transfected with the rat calcitonin receptor (Assay VIII); also called rCTR; rat calcitonin (a) receptor
T1 sequence (looked up): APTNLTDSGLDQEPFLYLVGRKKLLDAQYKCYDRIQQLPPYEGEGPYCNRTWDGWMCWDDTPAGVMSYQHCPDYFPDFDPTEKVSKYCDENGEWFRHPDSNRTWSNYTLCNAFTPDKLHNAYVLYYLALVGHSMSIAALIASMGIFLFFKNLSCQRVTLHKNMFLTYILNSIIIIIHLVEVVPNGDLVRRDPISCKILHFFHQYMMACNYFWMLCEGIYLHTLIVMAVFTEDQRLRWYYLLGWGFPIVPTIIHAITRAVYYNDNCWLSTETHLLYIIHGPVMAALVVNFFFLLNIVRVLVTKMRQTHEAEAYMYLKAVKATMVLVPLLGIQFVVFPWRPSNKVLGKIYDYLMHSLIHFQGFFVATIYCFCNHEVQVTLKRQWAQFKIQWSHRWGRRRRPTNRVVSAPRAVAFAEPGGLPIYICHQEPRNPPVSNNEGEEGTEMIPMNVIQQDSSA
Assay: IC50 on rat CTR divided by IC50 on rat amylin receptor (Assays VIII/VI)

Row | Binder | Ratio rCT/rAmylin binding
1 | B1 | 135
2 | B2 | 81.7
3 | B3 | 76.6
4 | B4 | 162
5 | B5 | 47.7

Molecular target: T2, human calcitonin receptor (human, UniProt P30988 25-474)
T2 construct: whole, on cells; Used as membranes prepared from a BHK tk'ts 13 cell line stably transfected with the human calcitonin receptor (Assay VII); also called hCTR; hCT
T2 sequence (looked up): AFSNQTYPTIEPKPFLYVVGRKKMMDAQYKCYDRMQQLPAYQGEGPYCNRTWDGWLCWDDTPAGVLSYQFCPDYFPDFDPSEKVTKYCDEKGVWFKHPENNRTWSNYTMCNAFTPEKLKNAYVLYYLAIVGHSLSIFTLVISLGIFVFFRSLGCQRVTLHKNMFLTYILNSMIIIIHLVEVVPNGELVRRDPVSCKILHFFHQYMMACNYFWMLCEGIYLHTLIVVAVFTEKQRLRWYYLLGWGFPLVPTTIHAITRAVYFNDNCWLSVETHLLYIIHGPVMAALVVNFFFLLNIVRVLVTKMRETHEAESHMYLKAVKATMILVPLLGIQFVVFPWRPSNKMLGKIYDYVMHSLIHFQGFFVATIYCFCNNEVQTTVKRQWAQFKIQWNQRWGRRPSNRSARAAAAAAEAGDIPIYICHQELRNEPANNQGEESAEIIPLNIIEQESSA
Assay: IC50 on human CTR divided by IC50 on human amylin receptor (Assays VII/V)
How it was run: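 Scintillation proximity competition binding on cell membranes at 35 ng/μL with SPA beads, in 50 mM Hepes pH 7.4, 1 mM CaCl2, 5 mM MgCl₂, 0.1% OA, 0.02% Tween20. Incubated 120 min at 25° C with shaking. IC₅₀ from one-site competition fit.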

Row | Binder | Ratio hCT/hAmylin binding
6 | B1 | 133
7 | B2 | 36
8 | B3 | 109
9 | B4 | 32
10 | B5 | 10.8

Molecular target: T1, rat calcitonin receptor
Assay: SPA competition with 125I-calcitonin, membranes of BHK cells with rat CTR (Assay VIII)

Row | Binder | IC50
11 | B1 | 24.4 nM
12 | B2 | 5.63 nM
13 | B3 | 10.3 nM
14 | B4 | 44.8 nM
15 | B5 | 51.4 nM

Molecular target: T3, rat amylin receptor (rat calcitonin receptor + rat RAMP 3) (rat, UniProt P32214 25-516; Q9JJ73 23-147)
T3 construct: whole, on cells; Used as membranes prepared from BHK tk'ts 13 cells transiently transfected with rat calcitonin receptor and rat RAMP 3 (Assay VI); also called rAmylin-R; rat amylin 3(a) receptor
T3 sequence (looked up) 1: T1 sequence (looked up)
T3 sequence (looked up) 2: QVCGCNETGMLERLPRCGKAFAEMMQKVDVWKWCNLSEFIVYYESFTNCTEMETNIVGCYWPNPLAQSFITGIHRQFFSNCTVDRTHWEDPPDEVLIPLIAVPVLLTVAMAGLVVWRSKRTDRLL
Assay: SPA competition with 125I-rat amylin, membranes of BHK cells with rat CTR + rat RAMP3 (Assay VI)

Row | Binder | IC50
16 | B1 | 0.181 nM
17 | B2 | 0.069 nM
18 | B3 | 0.135 nM
19 | B4 | 0.276 nM
20 | B5 | 1.08 nM

Reference: US20140087995A1 (published 2014)
